Biological target: Δgpαf-BOF (recombinant nonglycosylated pro-α factor derivative labeled with BODIPY FL) (yeast)
Assay: fluorescence polarisation; BOF anisotropy; Δgpαf-BOF (0.2 μM in buffer A: 50 mM HEPES pH 7.5, 40 mM KOAc, 5 mM MgCl2) titrated at 4°C with PDI or BiP; a separate sample for each concentration

Substance | Kd [nM]
oxidized protein disulfide isomerase (from UniProt P07237 18-508) (enzyme) | 900
reduced protein disulfide isomerase (from UniProt P07237 18-508) (enzyme) | 30
